Key:
[1] = molecular target: preformed complex PARP2-QFRD_Alexa488 + Nuc165 (human) (UniProt Q9UGN5); assay: FRET or BRET; Alexa647-labeled HPF1 (acceptor) titrated from 18.5 μM to 0 μM into 1 μM Alexa488-labeled PARP2 (donor) alone or into the preformed PARP2–Nuc165 complex (1 μM / 100 nM); 50 mM Tris-HCl pH 8, 50 mM NaCl, 1 mM MgCl2, 0.1 mM EDTA, 0.1 mM TCEP, 0.01% NP-40; Hill model
[2] = molecular target: preformed complex PARP2-WT_Alexa488 + Nuc165 (human) (UniProt Q9UGN5); assay: as above

Alexa647-labeled HPF1, sequence (Q9NWY4 whole entry): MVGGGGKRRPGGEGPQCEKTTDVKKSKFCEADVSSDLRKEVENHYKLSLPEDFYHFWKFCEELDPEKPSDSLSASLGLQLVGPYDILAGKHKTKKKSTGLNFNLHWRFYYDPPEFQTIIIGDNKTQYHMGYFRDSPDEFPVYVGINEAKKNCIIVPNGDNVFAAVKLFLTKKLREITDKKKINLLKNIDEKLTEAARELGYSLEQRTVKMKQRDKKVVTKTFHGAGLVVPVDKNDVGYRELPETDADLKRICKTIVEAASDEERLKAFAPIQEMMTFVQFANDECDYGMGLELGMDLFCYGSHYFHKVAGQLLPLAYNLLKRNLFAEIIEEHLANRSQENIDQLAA

Kd [1]: 702 nM | Kd [2]: 279 nM
Substance: Alexa647-labeled HPF1 (from UniProt Q9NWY4 1-346) (natural protein)
